Values joined by “and” are separate entries in the source; they are usually repeats but may differ in a detail not shown here. Equal values may be shown once. Each block holds one substance with its values, some of them ahead of it.
What was measured:
[1] = biological target: Flt3 receptor on OCI-AML5 cells (human) (UniProt P36888); assay: cell-based or functional assay
[2] = biological target: mouse thrombopoietin receptor cMPL expressed on the surface of Freestyle HEK293 cells (mouse) (UniProt Q08351); assay: flow cytometry on mouse cMPL-expressing HEK293 cells, fluorescent anti-IgG1 secondary antibody
[3] = biological target: human thrombopoietin receptor cMPL expressed on the surface of Freestyle HEK293 cells (human) (UniProt P40238); assay: flow cytometry on human cMPL-expressing HEK293 cells, fluorescent anti-IgG1 secondary antibody
[4] = biological target: cMPL/TPO receptor on M-07e cells (human) (UniProt P40238); assay: cell-based or functional assay

Chain of mouse thrombopoietin receptor cMPL expressed on the surface of Freestyle HEK293 cells (mouse) (Q08351 26-625): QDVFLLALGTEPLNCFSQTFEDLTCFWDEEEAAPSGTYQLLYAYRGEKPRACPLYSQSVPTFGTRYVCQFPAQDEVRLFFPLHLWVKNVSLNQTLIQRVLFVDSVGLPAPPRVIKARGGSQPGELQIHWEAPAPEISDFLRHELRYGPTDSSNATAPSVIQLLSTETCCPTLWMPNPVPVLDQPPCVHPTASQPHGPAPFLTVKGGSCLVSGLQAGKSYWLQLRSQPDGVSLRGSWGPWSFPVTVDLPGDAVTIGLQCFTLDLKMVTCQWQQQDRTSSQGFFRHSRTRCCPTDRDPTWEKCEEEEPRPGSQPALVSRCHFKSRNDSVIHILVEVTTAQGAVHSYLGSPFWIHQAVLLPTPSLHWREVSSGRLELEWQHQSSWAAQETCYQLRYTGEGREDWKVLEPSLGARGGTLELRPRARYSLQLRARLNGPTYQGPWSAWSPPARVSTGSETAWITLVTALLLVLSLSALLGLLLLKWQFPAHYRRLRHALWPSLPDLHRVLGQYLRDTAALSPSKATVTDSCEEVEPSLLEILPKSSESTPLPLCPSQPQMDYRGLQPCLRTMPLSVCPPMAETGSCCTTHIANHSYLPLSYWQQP
Chain of Flt3 receptor on OCI-AML5 cells (human) (P36888 27-993): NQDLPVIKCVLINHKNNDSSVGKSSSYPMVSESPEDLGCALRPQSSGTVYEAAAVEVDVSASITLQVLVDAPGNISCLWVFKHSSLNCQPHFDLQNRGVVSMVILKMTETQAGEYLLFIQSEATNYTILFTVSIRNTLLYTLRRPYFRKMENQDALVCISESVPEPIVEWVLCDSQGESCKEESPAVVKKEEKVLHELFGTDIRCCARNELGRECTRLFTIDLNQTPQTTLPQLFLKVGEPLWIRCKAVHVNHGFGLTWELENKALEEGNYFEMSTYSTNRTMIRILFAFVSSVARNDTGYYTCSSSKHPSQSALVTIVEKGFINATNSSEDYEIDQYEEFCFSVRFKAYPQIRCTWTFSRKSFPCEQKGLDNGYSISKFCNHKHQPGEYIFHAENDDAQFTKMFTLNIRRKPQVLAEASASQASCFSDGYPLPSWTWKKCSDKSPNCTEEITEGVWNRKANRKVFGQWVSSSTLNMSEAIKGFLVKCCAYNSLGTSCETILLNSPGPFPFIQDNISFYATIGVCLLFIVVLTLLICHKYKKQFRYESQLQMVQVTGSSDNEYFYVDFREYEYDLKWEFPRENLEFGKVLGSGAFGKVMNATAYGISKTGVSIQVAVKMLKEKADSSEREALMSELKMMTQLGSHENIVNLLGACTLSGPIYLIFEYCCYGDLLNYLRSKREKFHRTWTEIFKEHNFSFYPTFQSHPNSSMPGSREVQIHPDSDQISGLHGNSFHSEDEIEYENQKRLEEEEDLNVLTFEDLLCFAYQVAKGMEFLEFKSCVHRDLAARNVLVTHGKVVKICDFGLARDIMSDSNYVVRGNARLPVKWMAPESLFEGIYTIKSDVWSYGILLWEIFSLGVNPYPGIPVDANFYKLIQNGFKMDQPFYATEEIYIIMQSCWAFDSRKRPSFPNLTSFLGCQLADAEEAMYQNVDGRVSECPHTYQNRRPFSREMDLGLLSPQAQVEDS

apoptosis of starved OCI-AML5 cells, Annexin V flow cytometry [1]: 53.8% | live cells, starved OCI-AML5, Annexin V flow cytometry [1]: 45.8% | percent of OCI-AML5 cells positive for Erk1/2 phosphorylation [1]: 75%
Substance: FL monomer Fc fusion polypeptide

percentage of bound cells [2]: > 40 percent and 50 percent | percentage of bound cells [3]: > 30 percent and 40 percent
Substance: FLT3L-romiplostim fusion polypeptide without a His-Tag (Fc fusion)

EC50 of M-07e cell proliferation, XTT assay [4]: 0.0121 µM | percent of M-07e cells positive for Akt phosphorylation [4]: 20% | percent of M-07e cells positive for Erk1/2 phosphorylation at 6.67 nM [4]: 60% | percent of M-07e cells positive for Erk1/2 phosphorylation at 13.33 nM [4]: 60% | percent of M-07e cells positive for Erk1/2 phosphorylation, 25 ng/ml to 800 ng/ml romiplostim [4]: 60% | percentage of bound cells [2]: > 40 percent | percentage of bound cells [3]: > 30 percent
Substance: Nplate (Romiplostim) (Fc fusion)

percent of M-07e cells positive for Akt phosphorylation [4]: < 5% | percent of M-07e cells positive for Erk1/2 phosphorylation at 25 ng/ml TPOm [4]: < 5% | percent of M-07e cells positive for Erk1/2 phosphorylation at 800 ng/ml TPOm [4]: 20%
Substance: thrombopoietin mimetic (TPOm) peptide

From US20260055210A1
